Experimental findings from patent US20220259316A1 (SINOCELLTECH, published 2022) are described below.

The target of the experiment is T1, EGFR ECD recombinant protein (UniProt P00533 25-645, limits assumed).
T1 construct: extracellular domain; also called erbB1; Her1
In words: method not stated; recombinant EGFR ECD protein.

B1: recombinant fully human anti-EGFR monoclonal antibody N6-3 (antibody, human IgG1, kappa, V domains shown)
VH: QVQLQESGPGLVKPSETLSLTCTVSGGSVSSGDYYWSWIRQSPGKGLEWIGHIYYSGNTNYNPSLKSRLTISIDTSKNQFSLKLSSVTAADTAIYYCVRDRVTGAFDIWGQGTMVTVSS
VL: DIVMTQSPSTLSASVGDRVTITCQASQDISNYLNWYQQKPGKAPKLLIYDASSLETGVPSRFSGSGSGTDFTFTISGLQPEDIATYFCQHFDHLPLAFGGGTKVEIKR
notes: also called recombinant human anti-EGFR monoclonal antibody (N6-3)
B1: the Kd was determined as 0.05 nM.
